# Like-named read-outs stand apart in the source and are kept apart here.
# Tests used:
# [1] = molecular target: pheromone-biosynthesis-activating neuropeptide receptor (fire ant PBAN-R) (fire ant (Solenopsis invicta)); experiment: phage display selection on Sf9 cells expressing PBAN-R, 3-4 rounds; count of sequenced clones
# [2] = molecular target: pheromone-biosynthesis-activating neuropeptide receptor (fire ant PBAN-R) (fire ant (Solenopsis invicta)); experiment: as above; remark: listed apart in the source
Molecule,Abundance of phage clones [1] [clones],Abundance of phage clones [2] [clones]
LPWQIHN (SEQ ID NO: 29) (peptide),1,
TQIGTHF (SEQ ID NO: 17) (peptide),1,
QQTKNYY (SEQ ID NO: 32) (peptide),1,
NTGSPYE (SEQ ID NO: 36) (peptide),1,
ERVGTHY (SEQ ID NO: 24) (peptide),1,
IQIGTHF (SEQ ID NO: 18) (peptide),1,
LPMTKHV (SEQ ID NO: 30) (peptide),1,
YSSPSHF (SEQ ID NO: 23) (peptide),1,
IHXGTHF (SEQ ID NO: 22) (peptide),1,
SQLPWYS (SEQ ID NO: 34) (peptide),1,
CRGATPMSC (Cysteine-Cysteine S-S bond at the N- and C-terminal ends) [… (SEQ ID NO: 12)],,2
CIVQGSHFC (loop-constrained by a pair of flanking cysteine (C) residues) [… (SEQ ID NO: 7)],,2
CMARYMSAC (Cysteine-Cysteine S-S bond at the N- and C-terminal ends) [… (SEQ ID NO: 11)],,2

# The remaining lines, values ahead:
Abundance of phage clones [1] [clones],Abundance of phage clones [2] [clones],Molecule
1,,IKIGSHY (SEQ ID NO: 26) (peptide)
1,,TXVGSHF (SEQ ID NO: 15) (peptide)
1,,QSIGTHF (SEQ ID NO: 19) (peptide)
1,,QRIGLHY (SEQ ID NO: 27) (peptide)
1,,IHIGSHF (SEQ ID NO: 16) (peptide)
1,,IKVGPHY (SEQ ID NO: 25) (peptide)
1,,ERVGTHF (SEQ ID NO: 20) (peptide)
1,,NTGGSMA (SEQ ID NO: 35) (peptide)
1,,TNANHYF (SEQ ID NO: 31) (peptide)
1,,TNGDSAR (SEQ ID NO: 33) (peptide)
1,,HSRVSGT (SEQ ID NO: 21) (peptide)
1,,VSRTSHL (SEQ ID NO: 28) (peptide)
,2,CVKLGSHFC (Cysteine-Cysteine S-S bond at the N- and C-terminal ends) [… (SEQ ID NO: 6)]
,3,CIQQGSHFC (loop-constrained by a pair of flanking cysteine (C) residues) [… (SEQ ID NO: 4)]
,2,CVKQGTHFC (loop-constrained by a pair of flanking cysteine (C) residues) [… (SEQ ID NO: 9)]
,7,CLKIGSHFC (Cysteine-Cysteine S-S bond at the N- and C-terminal ends) [… (SEQ ID NO: 3)]
,3,CERVGSHFC (loop-constrained by a pair of flanking cysteine (C) residues) [… (SEQ ID NO: 5)]
,2,CQSINGHFC (loop-constrained by a pair of flanking cysteine (C) residues) [… (SEQ ID NO: 8)]
,2,CIVQGSHFC (loop-constrained by a pair of flanking cysteine (C) residues) [… (SEQ ID NO: 10)]

# Reference: patent US20180086790A1
